As usually defined, the stoichiometry N is a count of units in the complex or per binding partner.

Our source for the stoichiometry N values is publication PMC12313861.

For this assay, the target named is ComFB signaling protein (Slr1970) (Synechocystis). The assay is described as follows: SEC-MALS; size exclusion chromatography coupled to multiangle light scattering of ComFB; species of 40.5 kDa against theoretical monomer mass 20.4 kDa. (In gel filtration, larger molecules generally elute earlier.)

Take “ComFB signaling protein (Slr1970) (natural protein)”: the stoichiometry N amounted to 2.
